Measured values: the supplement of paper PMC11246515
± gives the standard deviation of the averaged measurements.

Test: total protein half-life in vivo (active degradation + dilution); higher = more stable protein
[1] = E. coli NCM3722 delta-lon, growth: N-lim chemostat, doubling time 6 h
[2] = E. coli NCM3722 delta-smpB, growth: N-lim chemostat, doubling time 6 h
[3] = wild type E. coli NCM3722, growth: C-lim chemostat, doubling time 3 h
[4] = wild type E. coli NCM3722, growth: C-lim chemostat, doubling time 6 h
[5] = wild type E. coli NCM3722, growth: C-lim chemostat, doubling time 12 h
[6] = wild type E. coli NCM3722, growth: N-lim chemostat, doubling time 6 h
[7] = wild type E. coli NCM3722, growth: N-lim chemostat, doubling time 12 h
[8] = wild type E. coli NCM3722, growth: P-lim chemostat, doubling time 6 h
[9] = wild type E. coli NCM3722, growth: P-lim chemostat, doubling time 12 h
[10] = E. coli NCM3722 delta-clpP delta-lon delta-hslV, growth: N-lim chemostat, doubling time 6 h
[11] = E. coli NCM3722 delta-clpP, growth: N-lim chemostat, doubling time 6 h
[12] = E. coli NCM3722 delta-hslV, growth: N-lim chemostat, doubling time 6 h

Sequence | total protein half-life in vivo [1] [h] | total protein half-life in vivo [2] [h] | total protein half-life in vivo [3] [h] | total protein half-life in vivo [4] [h] | total protein half-life in vivo [5] [h] | total protein half-life in vivo [6] [h] | total protein half-life in vivo [7] [h] | total protein half-life in vivo [8] [h] | total protein half-life in vivo [9] [h] | total protein half-life in vivo [10] [h] | total protein half-life in vivo [11] [h] | total protein half-life in vivo [12] [h]
MNNNDLFQASRRRFLAQLGGLTVAGMLGPSLLTPRRATAAQAATDAVISKEGILTGSHWGAIRATVKDGRFVAAKPFELDKYPSKMIAGLPDHVHNAARIRYPMVRVDWLRKRHLSDTSQRGDNRFVRVSWDEALDMFYEELERVQKTHGPSALLTASGWQSTGMFHNASGMLAKAIALHGNSVGTGGDYSTGAAQVILPRVVGSMEVYEQQTSWPLVLQNSKTIVLWGSDLLKNQQANWWCPDHDVYEYYAQLKAKVAAGEIEVISIDPVVTSTHEYLGREHVKHIAVNPQTDVPLQLALAHTLYSENLYDKNFLANYCVGFEQFLPYLLGEKDGQPKDAAWAEKLTGIDAETIRGLARQMAANRTQIIAGWCVQRMQHGEQWAWMIVVLAAMLGQIGLPGGGFGFGWHYNGAGTPGRKGVILSGFSGSTSIPPVHDNSDYKGYSSTIPIARFIDAILEPGKVINWNGKSVKLPPLKMCIFAGTNPFHRHQQINRIIEGLRKLETVIAIDNQWTSTCRFADIVLPATTQFERNDLDQYGNHSNRGIIAMKQVVPPQFEARNDFDIFRELCRRFNREEAFTEGLDEMGWLKRIWQEGVQQGKGRGVHLPAFDDFWNNKEYVEFDHPQMFVRHQAFREDPDLEPLGTPSGLIEIYSKTIADMNYDDCQGHPMWFEKIERSHGGPGSQKYPLHLQSVHPDFRLHSQLCESETLRQQYTVAGKEPVFINPQDASARGIRNGDVVRVFNARGQVLAGAVVSDRYAPGVARIHEGAWYDPDKGGEPGALCKYGNPNVLTIDIGTSQLAQATSAHTTLVEIEKYNGTVEQVTAFNGPVEMVAQCEYVPASQVKS | 7.84 | 5.54 | 3.3 ± 0.074 | 4.64 ± 2.7 | 13.2 ± 1.9 | 7.02 ± 0.15 | 14 ± 1.4 | 6.85 ± 0.67 | 12.6 ± 0.63 | – | – | –
MNNNDLVAKLWKLCDNLRDGGVSYQNYVNELASLLFLKMCKETGQEAEYLPEGYRWDDLKSRIGQEQLQFYRKMLVHLGEDDKKLVQAVFHNVSTTITEPKQITALVSNMDSLDWYNGAHGKSRDDFGDMYEGLLQKNANETKSGAGQYFTPRPLIKTIIHLLKPQPREVVQDPAAGTAGFLIEADRYVKSQTNDLDDLDGDTQDFQIHRAFIGLELVPGTRRLALMNCLLHDIEGNLDHGGAIRLGNTLGSDGENLPKAHIVATNPPFGSAAGTNITRTFVHPTSNKQLCFMQHIIETLHPGGRAAVVVPDNVLFEGGKGTDIRRDLMDKCHLHTILRLPTGIFYAQGVKTNVLFFTKGTVANPNQDKNCTDDVWVYDLRTNMPSFGKRTPFTDEHLQPFERVYGEDPHGLSPRTEGEWSFNAEETEVADSEENKNTDQHLATSRWRKFSREWIRTAKSDSLDISWLKDKDSIDADSLPEPDVLAAEAMGELVQALSELDALMRELGASDEADLQRQLLEEAFGGVKE | 4.72 ± 0.37 | 4.17 ± 0.28 | 2.586 ± 0.0099 | 5.252 ± 0.027 | 9.58 ± 1 | 4.476 ± 0.014 | 7.36 ± 0.36 | 5.18 ± 0.24 | 10.5 ± 0.66 | 5.68 ± 0.29 | 4.9709 ± 0.0002 | 4.85 ± 0.48
MNNRVHQGHLARKRFGQNFLNDQFVIDSIVSAINPQKGQAMVEIGPGLAALTEPVGERLDQLTVIELDRDLAARLQTHPFLGPKLTIYQQDAMTFNFGELAEKMGQPLRVFGNLPYNISTPLMFHLFSYTDAIADMHFMLQKEVVNRLVAGPNSKAYGRLSVMAQYYCNVIPVLEVPPSAFTPPPKVDSAVVRLVPHATMPHPVKDVRVLSRITTEAFNQRRKTIRNSLGNLFSVEVLTGMGIDPAMRAENISVAQYCQMANYLAENAPLQES | 5.84 ± 0.95 | 5.39 ± 0.63 | 2.972 ± 0.017 | 5.41 ± 0.75 | 12.5 ± 1.5 | 5.24 ± 0.29 | 9.91 ± 1.2 | 5.56 ± 0.3 | 10.6 ± 0.28 | 5.45 ± 0.071 | 5.39 ± 0.83 | 5.18 ± 0.36
MNNSAFTFQTLHPDTIMDALFEHGIRVDSGLTPLNSYENRVYQFQDEDRRRFVVKFYRPERWTADQILEEHQFALQLVNDEVPVAAPVAFNGQTLLNHQGFYFAVFPSVGGRQFEADNIDQMEAVGRYLGRMHQTGRKQLFIHRPTIGLNEYLIEPRKLFEDATLIPSGLKAAFLKATDELIAAVTAHWREDFTVLRLHGDCHAGNILWRDGPMFVDLDDARNGPAVQDLWMLLNGDKAEQRMQLETIIEAYEEFSEFDTAEIGLIEPLRAMRLVYYLAWLMRRWADPAFPKNFPWLTGEDYWLRQTATFIEQAKVLQEPPLQLTPMY [P0C0K3] | 4.43 ± 0.29 | 4.22 ± 0.26 | 2.99 ± 0.046 | 5.38 ± 0.61 | 10.3 ± 1.3 | 4.23 ± 0.21 | 6.67 ± 0.66 | 6.02 ± 0.38 | 10.3 ± 0.64 | 3.88 ± 0.5 | 5.41 ± 1.8 | 4.37 ± 0.62
